Biological target: YFPN-hAQP4 (human aquaporin 4 fused N-terminally to the YFPN fragment) (human) (UniProt P55087)
Test: split reporter (BiFC, NanoBiT); YFPN-hAQP and YFPC-CaM co-expressed in S. cerevisiae; living cells at OD600 0.5 read by flow cytometry (FACSMelody, excitation 488 nm, FITC channel 527/32 nm); fluorescence frequency and intensity of gated cells; three transformations, ten replicates each

Chain of UniProt P55087 (P55087 whole entry, the tested form may be a part): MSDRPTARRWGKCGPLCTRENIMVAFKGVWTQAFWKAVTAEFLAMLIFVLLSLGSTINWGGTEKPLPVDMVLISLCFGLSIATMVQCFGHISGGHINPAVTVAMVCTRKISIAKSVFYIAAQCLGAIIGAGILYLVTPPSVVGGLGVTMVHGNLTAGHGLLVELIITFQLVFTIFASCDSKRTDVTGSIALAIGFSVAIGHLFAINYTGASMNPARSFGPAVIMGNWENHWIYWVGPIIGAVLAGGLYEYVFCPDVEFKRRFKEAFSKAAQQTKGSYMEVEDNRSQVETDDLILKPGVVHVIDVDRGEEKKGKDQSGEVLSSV

average fluorescence intensity (BiFC): 1700
Substance: YFPC-CaM (calmodulin fused N-terminally to the YFPC fragment) (from UniProt P0DP23 1-149) (natural protein)

— paper PMC12317118
